“And” between values parts separate entries of the source, which are not always exact repeats. Equal values may be shown once.

In assay [1] the target is HTNV Gn ectodomain (Hantaan virus glycoprotein Gn, residues 18 to 371) (Hantaan virus (HTNV)). The assay is described as follows: AUC.
For assay [2] the target is unchanged. Briefly: crystal structure.

As for “HTNV Gn ectodomain (Hantaan virus glycoprotein Gn, residues 18 to 371) (domain or fragment)”, the stoichiometry N was 2 and 3 and 4 in assay [1]; 4 in assay [2].

For orientation: stoichiometry N means a count of units in the complex or per binding partner.

Values taken from paper PMC5640846.
